Article PMC12276012, “Molecular mechanisms of biomolecular condensate formation in Drosophila melanogaster siRNA biogenesis”

Biological target: T1, Loqs-PD 1,2-mut (Drosophila melanogaster, UniProt Q9VJY9-4 1-359, K189A;K190A;K301A;K302A)
T1 sequence: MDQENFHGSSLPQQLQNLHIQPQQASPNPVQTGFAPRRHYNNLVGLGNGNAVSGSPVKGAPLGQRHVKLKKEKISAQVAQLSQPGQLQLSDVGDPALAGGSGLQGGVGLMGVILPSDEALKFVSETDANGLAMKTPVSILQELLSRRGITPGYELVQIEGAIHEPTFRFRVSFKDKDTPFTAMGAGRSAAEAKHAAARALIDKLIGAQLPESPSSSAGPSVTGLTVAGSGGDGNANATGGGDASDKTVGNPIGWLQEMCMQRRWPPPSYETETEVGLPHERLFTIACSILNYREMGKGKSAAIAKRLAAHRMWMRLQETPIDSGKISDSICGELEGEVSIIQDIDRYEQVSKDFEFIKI
Assay: EMSA; 400 nM RNA, 400-3200 nM protein; EMSA: 20 mM sodium phosphate pH 6.5, 150 mM NaCl, 15% glycerol, 15 min, 1% agarose 1x TBE; NMR: 20 mM sodium phosphate pH 6.5, PS-I or PS-II buffer (50-500 mM NaCl), 292 K for Loqs-PD deltaC
Details: protein: recombinant; tags: His6-GB1 or His6 tag, cleaved by TEV; label: 3' Cy5; hairpin, 21 bp stem, GUGA loop

Binder: GGAGCUUUCAAAAUGAUCUCCGUGAGGAGAUCAUUUUGAAAGCUCC (structured_RNA, 3' pCp-Cy5 ligated (adds one C)) [21 bp hairpin dsRNA, Cy5]
- binding result: no binding
